Measured values published in patent US20220387578A1 (VANDERBILT UNIVERSITY, published 2022).

T1: eHead_H1_v3.1_mC
T1 chain: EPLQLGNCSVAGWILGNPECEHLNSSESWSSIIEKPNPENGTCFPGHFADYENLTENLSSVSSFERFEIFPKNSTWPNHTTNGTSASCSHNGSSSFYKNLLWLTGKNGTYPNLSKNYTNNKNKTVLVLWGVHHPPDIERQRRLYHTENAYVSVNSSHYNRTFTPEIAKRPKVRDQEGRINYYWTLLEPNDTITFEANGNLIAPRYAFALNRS

B1: FluA20_UCA (as used in the SPR experiments of Example 4) (antibody, V domains shown)
VH: QVQLQESGPGLVKPSETLSLTCTVSGGSVSSGSYYWSWIRQPPGKGLEWIGYIYYSGSTNYNPSLKSRVTISVDTSKNQFSLKLSSVTAADTAVYYCARGTEDLGYCSGGSCPNHWGQGTLVTVSS
VL: not shown
B2: FluA20 (as used in the SPR experiments of Example 4) (antibody, V domains shown)
VH: QVQLQESGPGLVKPSETLSLTCSVSGVSVTSDIYYWTWIRQPPGKGLEWIGYIFYNGDTNYNPSLKSRVTMSIDTSKNEFSLRLTSVTAADTAVYFCARGTEDLGYCSSGSCPNHWGQGTLVTVSS
VL: DIQMTQSPSSLSASIGDRVTITCRPSQNIRSFLNWFQHKPGKAPKLLIYAASNLQSGVPSRFSGSGSGTEFTLTIRSLQPEDFATYYCQQSYNTPPTFGQGTKVEIK

Target: T1, eHead_H1_v3.1_mC
Assay: SPR

Row | Binder | Kd
1 | B1 | 220 nM
2 | B2 | 2.8 nM
